Consider one substance from patent US20070190601.

Where a chain is given by its changes, count along the chain named.

What all share (test): cell_activity
The subject of data set [1] is T1, 3rdGTG-int (+1 start) (Streptomyces phage phiC31).
T1 sequence: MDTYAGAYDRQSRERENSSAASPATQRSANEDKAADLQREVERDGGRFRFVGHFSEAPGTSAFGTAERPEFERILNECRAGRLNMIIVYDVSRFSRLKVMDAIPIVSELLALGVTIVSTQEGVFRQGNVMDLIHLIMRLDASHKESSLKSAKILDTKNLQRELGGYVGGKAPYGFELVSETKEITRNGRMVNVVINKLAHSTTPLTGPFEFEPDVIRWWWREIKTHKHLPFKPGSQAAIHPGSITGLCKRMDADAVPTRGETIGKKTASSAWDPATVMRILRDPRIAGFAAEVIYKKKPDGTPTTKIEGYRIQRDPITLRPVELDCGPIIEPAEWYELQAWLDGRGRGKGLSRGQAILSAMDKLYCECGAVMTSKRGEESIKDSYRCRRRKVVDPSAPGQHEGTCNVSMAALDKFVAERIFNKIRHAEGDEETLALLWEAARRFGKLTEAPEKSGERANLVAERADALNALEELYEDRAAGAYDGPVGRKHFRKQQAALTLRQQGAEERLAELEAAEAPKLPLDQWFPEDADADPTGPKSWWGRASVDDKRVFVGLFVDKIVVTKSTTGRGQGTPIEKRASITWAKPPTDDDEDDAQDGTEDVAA
The note with it: DF-1 cells; 14 colonies avg.

The test system of data set [2] is T2, NLS-int-1 N-terminal MTQGVVTG replaced with MEPKKKRK (SEQ 57), joined at +1 V (Streptomyces phage phiC31).
T2 sequence: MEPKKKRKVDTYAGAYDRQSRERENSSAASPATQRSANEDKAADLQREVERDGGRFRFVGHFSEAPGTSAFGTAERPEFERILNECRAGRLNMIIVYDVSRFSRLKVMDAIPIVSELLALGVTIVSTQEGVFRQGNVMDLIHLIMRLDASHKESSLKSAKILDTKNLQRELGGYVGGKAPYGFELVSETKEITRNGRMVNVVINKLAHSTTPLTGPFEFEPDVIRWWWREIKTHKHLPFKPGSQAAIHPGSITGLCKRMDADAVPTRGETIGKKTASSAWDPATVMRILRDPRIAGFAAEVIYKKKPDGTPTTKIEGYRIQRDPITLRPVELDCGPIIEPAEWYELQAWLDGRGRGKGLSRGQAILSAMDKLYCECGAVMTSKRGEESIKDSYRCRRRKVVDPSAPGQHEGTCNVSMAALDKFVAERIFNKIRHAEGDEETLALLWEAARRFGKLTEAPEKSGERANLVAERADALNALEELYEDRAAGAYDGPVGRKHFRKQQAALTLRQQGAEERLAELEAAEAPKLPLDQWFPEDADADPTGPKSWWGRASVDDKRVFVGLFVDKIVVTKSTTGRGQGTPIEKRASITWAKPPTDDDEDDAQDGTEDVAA
The following applies: DF-1 cells; 2.5 colonies avg, background level; reflects recombination activity, not binding.

The test system of data set [3] is T3, 3rdGTG-int-NLS PKKKRKV appended after A605 (Streptomyces phage phiC31).
T3 sequence: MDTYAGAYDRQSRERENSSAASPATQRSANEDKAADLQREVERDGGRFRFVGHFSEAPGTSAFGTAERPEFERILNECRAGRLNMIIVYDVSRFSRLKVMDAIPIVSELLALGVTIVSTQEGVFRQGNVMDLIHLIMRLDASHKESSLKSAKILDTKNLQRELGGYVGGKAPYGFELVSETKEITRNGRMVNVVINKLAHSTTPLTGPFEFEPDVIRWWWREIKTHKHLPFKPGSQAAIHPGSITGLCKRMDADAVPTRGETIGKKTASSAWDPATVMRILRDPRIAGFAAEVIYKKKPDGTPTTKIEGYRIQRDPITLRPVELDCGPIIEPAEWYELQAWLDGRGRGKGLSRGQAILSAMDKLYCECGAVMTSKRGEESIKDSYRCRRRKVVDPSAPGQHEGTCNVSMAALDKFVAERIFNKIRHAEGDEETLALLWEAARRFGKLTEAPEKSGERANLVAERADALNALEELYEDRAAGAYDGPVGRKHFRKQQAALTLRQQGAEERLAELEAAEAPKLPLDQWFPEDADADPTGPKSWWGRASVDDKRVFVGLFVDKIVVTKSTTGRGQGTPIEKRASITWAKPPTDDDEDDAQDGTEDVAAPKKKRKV
The following applies: DF-1 cells; 10 colonies, one experiment.

In data set [4] the test system is T4, int-NLS234 insertion PPKKKRKVE between G and S at position 234 (SEQ 61) (Streptomyces phage phiC31).
T4 sequence: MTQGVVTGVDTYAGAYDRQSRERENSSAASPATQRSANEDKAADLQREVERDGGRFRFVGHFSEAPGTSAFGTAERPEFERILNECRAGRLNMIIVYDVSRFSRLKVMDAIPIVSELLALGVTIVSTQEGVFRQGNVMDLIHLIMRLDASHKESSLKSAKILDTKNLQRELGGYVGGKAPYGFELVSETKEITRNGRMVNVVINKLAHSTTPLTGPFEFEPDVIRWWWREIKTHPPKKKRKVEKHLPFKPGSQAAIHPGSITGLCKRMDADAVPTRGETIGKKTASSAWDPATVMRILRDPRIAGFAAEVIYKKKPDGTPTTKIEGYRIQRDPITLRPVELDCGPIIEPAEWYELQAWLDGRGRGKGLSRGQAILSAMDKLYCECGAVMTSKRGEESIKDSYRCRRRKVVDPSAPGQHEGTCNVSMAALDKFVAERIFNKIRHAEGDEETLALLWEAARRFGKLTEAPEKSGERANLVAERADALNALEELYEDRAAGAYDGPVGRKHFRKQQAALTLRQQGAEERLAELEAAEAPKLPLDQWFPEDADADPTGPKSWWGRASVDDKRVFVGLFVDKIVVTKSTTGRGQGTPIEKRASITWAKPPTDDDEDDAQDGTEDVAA
The following applies: DF-1 cells; 84 colonies avg.

Data set [5] relates to T5, c-myc-NLS-int N-terminal MTQGVVT replaced with MAPAAKRLKLDSL (SEQ 59), NLS joined at -1 G (Streptomyces phage phiC31).
T5 sequence: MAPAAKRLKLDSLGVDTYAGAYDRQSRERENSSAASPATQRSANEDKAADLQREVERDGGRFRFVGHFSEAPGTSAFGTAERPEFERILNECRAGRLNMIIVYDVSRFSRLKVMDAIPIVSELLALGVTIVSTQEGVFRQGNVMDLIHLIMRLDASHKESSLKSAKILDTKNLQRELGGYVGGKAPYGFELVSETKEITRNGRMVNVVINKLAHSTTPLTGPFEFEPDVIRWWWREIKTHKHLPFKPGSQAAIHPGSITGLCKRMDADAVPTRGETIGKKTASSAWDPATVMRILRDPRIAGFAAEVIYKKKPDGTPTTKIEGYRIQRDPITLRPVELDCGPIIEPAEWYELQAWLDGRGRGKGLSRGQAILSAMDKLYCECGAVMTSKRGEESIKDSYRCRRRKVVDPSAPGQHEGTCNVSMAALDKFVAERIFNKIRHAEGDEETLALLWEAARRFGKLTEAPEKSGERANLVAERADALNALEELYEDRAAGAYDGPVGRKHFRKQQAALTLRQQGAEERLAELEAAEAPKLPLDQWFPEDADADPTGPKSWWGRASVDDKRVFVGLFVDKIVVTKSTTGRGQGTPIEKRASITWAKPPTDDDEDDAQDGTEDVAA
The note with it: DF-1 cells; 56.2 colonies avg.

In data set [6] the test system is T6, NLS-int-2 MEPKKKRKV added upstream of -8 M (SEQ 58) (Streptomyces phage phiC31).
T6 sequence: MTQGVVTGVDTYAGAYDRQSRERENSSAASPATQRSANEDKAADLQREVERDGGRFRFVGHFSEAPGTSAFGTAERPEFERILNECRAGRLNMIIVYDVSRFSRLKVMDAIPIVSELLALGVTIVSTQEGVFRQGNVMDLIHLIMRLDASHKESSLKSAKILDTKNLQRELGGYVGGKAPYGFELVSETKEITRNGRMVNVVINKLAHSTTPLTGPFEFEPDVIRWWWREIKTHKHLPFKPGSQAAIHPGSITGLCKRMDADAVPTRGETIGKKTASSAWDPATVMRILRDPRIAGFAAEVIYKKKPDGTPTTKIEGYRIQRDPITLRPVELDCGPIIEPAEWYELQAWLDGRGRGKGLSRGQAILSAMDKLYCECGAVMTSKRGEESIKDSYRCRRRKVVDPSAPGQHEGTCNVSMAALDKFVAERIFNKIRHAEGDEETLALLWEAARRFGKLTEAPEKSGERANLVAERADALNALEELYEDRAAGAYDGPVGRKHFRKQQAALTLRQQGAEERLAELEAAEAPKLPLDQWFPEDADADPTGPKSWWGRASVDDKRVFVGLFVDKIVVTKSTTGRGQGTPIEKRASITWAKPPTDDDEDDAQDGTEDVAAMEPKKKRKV
The following applies: DF-1 cells; 6 colonies avg.

The test system of data set [7] is T7, 3rdGTG-int-NLS234 insertion PPKKKRKVE between G and S at position 234 (SEQ 61) (Streptomyces phage phiC31).
T7 sequence: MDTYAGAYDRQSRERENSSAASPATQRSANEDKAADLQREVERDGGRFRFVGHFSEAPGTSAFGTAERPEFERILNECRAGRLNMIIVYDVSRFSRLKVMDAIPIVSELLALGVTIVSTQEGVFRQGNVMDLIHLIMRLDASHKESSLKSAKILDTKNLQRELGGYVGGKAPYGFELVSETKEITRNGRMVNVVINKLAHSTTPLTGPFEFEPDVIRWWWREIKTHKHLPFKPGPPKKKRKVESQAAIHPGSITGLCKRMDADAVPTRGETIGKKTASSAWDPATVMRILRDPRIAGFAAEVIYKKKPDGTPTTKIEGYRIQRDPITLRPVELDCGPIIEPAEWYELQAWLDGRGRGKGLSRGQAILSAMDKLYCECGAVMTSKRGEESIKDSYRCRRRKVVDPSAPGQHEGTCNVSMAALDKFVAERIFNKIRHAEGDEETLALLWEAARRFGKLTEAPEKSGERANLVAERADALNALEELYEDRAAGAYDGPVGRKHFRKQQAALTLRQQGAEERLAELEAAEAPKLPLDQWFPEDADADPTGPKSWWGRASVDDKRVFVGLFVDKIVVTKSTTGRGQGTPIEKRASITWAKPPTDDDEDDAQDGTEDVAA
The note with it: DF-1 cells; 30 colonies avg.

For data set [8], the system named is T8, phiC31 integrase (wild type, -8 ATG start) (Streptomyces phage phiC31).
T8 sequence: T2 sequence with E2T, P3Q, K4G, K5V, K6V, R7T, K8G
The note with it: integration of pCMV-pur-attB into chicken DF-1 genome pseudo-attP sites; 103.8 colonies avg.

Consider phiC31 attB (donor plasmid), for which the activity (fold over no integrase) was 5.4 in data set [1]; 1 in data set [2]; 3.8 in data set [3]; 32.3 in data set [4]; 21.6 in data set [5]; 2.3 in data set [6]. Moreover, the activity (fold over no integrase) stood at 11.5 in data set [7] and 39.9 in data set [8].
